Values quoted from earlier work as cited in PMC7615502.

How the values were obtained:
[1] = target: IL-2Rα (Homo sapiens) (UniProt P01589)
[2] = target: IL-2Rβγ (Homo sapiens) (UniProt P14784)
Sequence of UniProt P14784 (P14784 27-240, chain 1 of 2): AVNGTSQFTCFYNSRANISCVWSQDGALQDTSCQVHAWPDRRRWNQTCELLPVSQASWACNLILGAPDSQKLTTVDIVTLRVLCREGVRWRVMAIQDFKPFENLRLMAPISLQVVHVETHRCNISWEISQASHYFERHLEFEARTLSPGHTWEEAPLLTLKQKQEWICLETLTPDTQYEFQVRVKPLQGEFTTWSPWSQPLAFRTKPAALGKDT
Sequence of UniProt P14784 (P31785 23-262, chain 2 of 2, further chain): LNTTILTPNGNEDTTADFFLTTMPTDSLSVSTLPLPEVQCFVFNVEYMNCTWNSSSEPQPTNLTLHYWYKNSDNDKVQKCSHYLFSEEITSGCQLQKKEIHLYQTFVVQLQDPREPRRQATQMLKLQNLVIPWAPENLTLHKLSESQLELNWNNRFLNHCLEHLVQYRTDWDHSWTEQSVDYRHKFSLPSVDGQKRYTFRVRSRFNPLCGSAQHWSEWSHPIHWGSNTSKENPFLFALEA

Sequence of UniProt P01589 (P01589 22-240): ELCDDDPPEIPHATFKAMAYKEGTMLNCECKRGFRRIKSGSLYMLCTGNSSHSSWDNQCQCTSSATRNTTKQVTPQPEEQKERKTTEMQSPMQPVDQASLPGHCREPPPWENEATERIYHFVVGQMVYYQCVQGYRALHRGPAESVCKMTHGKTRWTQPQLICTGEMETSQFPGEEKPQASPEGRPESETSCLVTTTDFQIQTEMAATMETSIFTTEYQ

Kd [1]: 10 nM | Kd [2]: 1 nM
Substance: IL-2 (from UniProt P60568)
